We go through 1 molecule from patent US20210369854A1.

In assay [1] the target is purified human CD5 ectodomain (human) (UniProt P06127). Kind of assay: BLI (Octet Red96), antibody on anti-human Fc biosensors, 50 nM CD5 ectodomain, 25 C. On the technique in general: In BLI a coated tip is dipped into the sample, and binding shifts an interference pattern.
Assay [2] deals with human CD5 on cells (MOLT-4 human T lymphoblast cell line; primary human T-cells) (human) (UniProt P06127). Kind of assay: flow cytometry on primary human T-cells, antibody titration, fluorophore-conjugated (AF488) secondary anti-IgG, MFI. (In general: Flow cytometry measures light scatter and fluorescence of single cells or particles in a stream.)

B1: anti-CD5 antibody 5D7 hIgG1 (humanized version of murine antibody 5D7) (antibody, V domains shown)
VH: QVTLKESGPVLVKPTETLTLTCTFSGFSLSTSGMGVGWIRQAPGKGLEWVAHIWWDDDVYYNPSLKSRLTITKDASKDQVSLKLSSVTAADTAVYYCVRRRATGTGFDYWGQGTLVTVSS
VL: NIVMTQSPSSLSASVGDRVTITCQASQDVGTAVAWYQQKPDQSPKLLIYWTSTRHTGVPDRFTGSGSGTDFTLTISSLQPEDIATYFCHQYNSYNTFGSGTKLEIK
In general, EC50 (read off the curve) refers to the concentration at which the effect is half-maximal. A high value points to a less potent agent. With B1, in assay [1], the Response (nm) was 0.67 nm. This molecule displayed an EC50 (read off the curve) in assay [2] of 0.03 nM.
